To fix the notation:
T1: mouse GPNMB endogenously expressed on B16F10 cells (mouse, UniProt Q99P91 23-574)
T1 construct: whole, on cells; also called moGPNMB
T1 sequence (looked up): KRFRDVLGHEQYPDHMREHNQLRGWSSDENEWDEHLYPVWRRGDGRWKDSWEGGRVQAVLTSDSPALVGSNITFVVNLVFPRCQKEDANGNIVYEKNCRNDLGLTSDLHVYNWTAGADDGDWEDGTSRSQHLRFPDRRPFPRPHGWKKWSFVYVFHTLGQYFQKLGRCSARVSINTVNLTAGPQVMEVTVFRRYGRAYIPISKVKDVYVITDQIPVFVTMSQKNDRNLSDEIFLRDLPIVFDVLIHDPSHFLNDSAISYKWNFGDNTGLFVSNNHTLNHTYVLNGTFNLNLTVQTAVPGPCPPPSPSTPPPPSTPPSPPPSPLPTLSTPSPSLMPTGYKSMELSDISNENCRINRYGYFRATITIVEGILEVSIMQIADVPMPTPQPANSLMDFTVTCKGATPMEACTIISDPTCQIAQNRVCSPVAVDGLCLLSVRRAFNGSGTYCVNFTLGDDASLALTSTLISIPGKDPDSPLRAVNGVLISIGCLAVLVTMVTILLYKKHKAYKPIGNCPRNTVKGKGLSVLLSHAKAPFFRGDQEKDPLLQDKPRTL

T2: full-length untagged human GPNMB expressed on cells (human, UniProt Q14956 23-572)
T2 sequence: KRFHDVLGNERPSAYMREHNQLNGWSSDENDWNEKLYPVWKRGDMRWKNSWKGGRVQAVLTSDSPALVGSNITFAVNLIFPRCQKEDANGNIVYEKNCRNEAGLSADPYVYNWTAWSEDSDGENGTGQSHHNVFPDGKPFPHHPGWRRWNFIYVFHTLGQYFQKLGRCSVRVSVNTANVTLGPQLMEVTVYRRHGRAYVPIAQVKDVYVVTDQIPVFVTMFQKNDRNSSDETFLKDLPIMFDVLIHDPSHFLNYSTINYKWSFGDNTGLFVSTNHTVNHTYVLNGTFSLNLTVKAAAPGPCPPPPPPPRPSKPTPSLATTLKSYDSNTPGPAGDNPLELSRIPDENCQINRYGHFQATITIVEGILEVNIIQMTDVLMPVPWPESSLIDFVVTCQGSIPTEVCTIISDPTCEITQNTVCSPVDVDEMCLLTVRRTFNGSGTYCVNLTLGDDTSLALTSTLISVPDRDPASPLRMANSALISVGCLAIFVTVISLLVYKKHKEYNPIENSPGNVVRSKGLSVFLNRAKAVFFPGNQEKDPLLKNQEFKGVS

T3: soluble mouse GPNMB-Fc polypeptide (mouse IgG2A Fc) (mouse, UniProt Q99P91 23-502)
T3 construct: extracellular domain; bought (R&D System); also called moGPNMB-Fc; mGPNMB-Fc; not shown: Fc region of mouse IgG2A
T3 sequence (looked up): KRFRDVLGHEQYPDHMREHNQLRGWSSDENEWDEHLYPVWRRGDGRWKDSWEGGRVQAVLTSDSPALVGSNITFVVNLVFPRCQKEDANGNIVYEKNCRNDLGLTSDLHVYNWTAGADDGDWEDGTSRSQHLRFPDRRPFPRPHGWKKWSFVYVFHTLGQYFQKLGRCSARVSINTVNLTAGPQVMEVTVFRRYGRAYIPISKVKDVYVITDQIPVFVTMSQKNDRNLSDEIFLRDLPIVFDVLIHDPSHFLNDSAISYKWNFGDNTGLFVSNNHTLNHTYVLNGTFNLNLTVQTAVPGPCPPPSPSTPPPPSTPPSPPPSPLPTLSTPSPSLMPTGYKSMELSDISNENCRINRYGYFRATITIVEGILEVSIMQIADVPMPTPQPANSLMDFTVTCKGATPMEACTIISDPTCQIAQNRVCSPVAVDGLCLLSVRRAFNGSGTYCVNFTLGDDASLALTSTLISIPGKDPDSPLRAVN

B1: anti-GPNMB antibody GPN-43 (antibody, human IgG1, V domains shown)
VH: EVQLQQSGPELVKPGASVKISCKASGYTFTDYYMNWVRQSHGKSLEWIGDINPYHGGSTYNQKIKVKATLTVDKSSSTAYMELRSLTSEDSAVYYCARNWPYFDYWGQGTTLTVSS
VL: DIQMTQSPASLSASVGETVTITCRASENIYSFLVWYQQKQGKSPQLLVYNAKTLAEGVPSRFSGSGSGTQFSLKISSLQPEDFGSYYCQHHFGTPPYTFGGGTKLEIK
notes: chimeric
B2: anti-GPNMB antibody GPN-38 (antibody, human IgG1, V domains shown)
VH: QVQLQQPGAELVRPGTSVRLSCKASGYTFTSYWIHWVKQRPGRGLEWIGVIDPSDSYTNYNQQFNVKATLTVDTSSSAAYMQLSSLTSEDSAVYYCARGLITAVNWYFDVWGTGTTVTVSS
VL: DIQMTQSPASLSTSVGEIVTITCRASENIYSYLTWYQQKQGKSPQLLVYNAKTLAEGVPSRFSGSGSGTQFSLKINSLQPEDFGTYYCQHHYGTPLTFGSGTKLEIK
notes: chimeric
B3: anti-GPNMB antibody GPN-35 (antibody, human IgG1, V domains shown)
VH: EVQLVESGGGSVRPGRSLKLSCAAAGFTFSDYYMTWVRQAPTKGLEWVASINHDGGGTYYRDSVKGRFTISRDNARSSLYLQMDSLRSEDTGTYYCTTRAGWHWGQGVMVTVSS
VL: DIQMTQSPASLSASLGETVSIECLASEDIYNYLTWYQQKPGKSPQVLIYSASGLQDGVPSRFSGSGSGRQYSLKINGLESEDAATYFCLQDSEYPLTFGSGTKLEIK
notes: chimeric
B4: anti-GPNMB antibody GPN-41 (antibody, human IgG1, V domains shown)
VH: QLQLQQSGTEVVKPGASVKIPCKASGYAFSSYWMNWVKQRPGKGLEWIGQIYPGDGDTNDNGKFEGKATLTVDKSSNTAYIQLSSLTSEDSAVYFCARSPLHLRGSMDYWGQGTSVTVSS
VL: SIVMTQTPKFLLVSAGDRVTITCKASQSVSNDVAWFQQKPGQSPELLIYSASNRYTGVPDRFTASGYGTDFTFTISAVQAEDLAVYFCQQNYYSPFTFGGGTRLEIK
notes: chimeric
B5: anti-GPNMB antibody GPN-83 (antibody, V domains shown)
VH: QVQLQESGPGLVKPSETLSLTCTVSGISITTGNYRWSWIRQPPGKGLEWIGYIDYSGTITYNPSLKSRVTITRDTSKNQFSLELSSVTAADTAVYYCARDLTHWYFDVWGQGTLVTVSS
VL: DIVMTQSPDSLAVSLGERATINCKSSRSVDYYGIGFVNWYQQKPGQPPKLLIYATSIQGSGVPDRFSGSGSGTDFTLTISSLQAEDVAVYYCQQQKEVPPTFGGGTKVEIK
B6: anti-GPNMB antibody GPN-86 (antibody, V domains shown)
VH: QVQLQESGPGLVKPSETLSLTCTVSGISITTGNYRWSWIRQPPGKGLEWIGYIDYSGTITYNPSLKSRVTITRDTSKNQFSLELSSVTAADTAVYYCARDLTHWYFDVWGQGTLVTVSS
VL: DIVMTQSPDSLAVSLGERATINCKSSRSVDYYGIGFLNWYQQKPGQPPKLLIYATSKQGSGVPDRFSGSGSGTDFTLTISSLQAEDVAVYYCQQQKEVPPTFGGGTKVEIK
B7: anti-GPNMB antibody GPN-85 (antibody, V domains shown)
VH: QVQLQESGPGLVKPSETLSLTCTVSGISITTGNYRWSWIRQPPGKGLEWIGYIDYSGTITYNPSLKQRVTITRDTSKNQFSLELSSVTAADTAVYYCARDLTHWYFDVWGQGTLVTVSS
VL: DIVMTQSPDSLAVSLGERATINCKSSRSVDYFGIGFLNWYQQKPGQPPKLLIYATSHQGSGVPDRFSGSGSGTDFTLTISSLQAEDVAVYYCQQQKEVPPTFGGGTKVEIK
B8: anti-GPNMB antibody GPN-89 (antibody, V domains shown)
VH: QVQLQESGPGLVKPSETLSLTCTVSGISITTGNYRWSWIRQPPGKGLEWIGYIDYSGTITYNPSLKSRVTITRDTSKNQFSLELSSVTAADTAVYYCARDLTHWYYDVWGQGTLVTVSS
VL: DIVMTQSPDSLAVSLGERATINCKSSRSVDYYGIGFLNWYQQKPGQPPKLLIYATSHQGSGVPDRFSGSGSGTDFTLTISSLQAEDVAVYYCQQQKEVPPTFGGGTKVEIK
B9: anti-GPNMB antibody GPN-90 (antibody, V domains shown)
VH: QVQLQESGPGLVKPSETLSLTCTVSGISITTGNYRWSWIRQPPGKGLEWIGYIDYSGTITYNPSLKQRVTITRDTSKNQFSLELSSVTAADTAVYYCARDLTHWYFDVWGQGTLVTVSS
VL: DIVMTQSPDSLAVSLGERATINCKSSRSVDYYGIGFLNWYQQKPGQPPKLLIYATSHQGSGVPDRFSGSGSGTDFTLTISSLQAEDVAVYYCQQQKEVPPTFGGGTKVEIK
B10: anti-GPNMB antibody GPN-87 (antibody, V domains shown)
VH: QVQLQESGPGLVKPSETLSLTCTVSGISITTGNYRWSWIRQPPGKGLEWIGYIDYSGTITYNPSLKSRVTITRDTSKNQFSLELSSVTAADTAVYYCARDLTHWYYDVWGQGTLVTVSS
VL: DIVMTQSPDSLAVSLGERATINCKSSRSVDYYGIGFLNWYQQKPGQPPKLLIYATSKQGSGVPDRFSGSGSGTDFTLTISSLQAEDVAVYYCQQQKEVPPTFGGGTKVEIK
B11: anti-GPNMB antibody GPN-37 (antibody, human IgG1, V domains shown)
VH: EVQLVESGGGLVQPGRSLKLSCAASGFTFSSKSGMAWVRQAPTKGLEWVASISNGGGDTYYRDSVKGRFTISRDNAKNTQYLQMDSLRPEDTATYYCARHRDYGYDAYFDYWGQGVMVTVSS
VL: DIQMTQSPASLSASLGETVTIECLASEDIYSSLAWYQQKPGKSPQLLIYDASSLQDGVPSRFSGSESGTQYSLEINSLQSEDAATYFCQQHHDYPYTFGAGTKLELK
notes: chimeric

One assay deals with T1, mouse GPNMB endogenously expressed on …. The assay is described as follows: FACS titration, B16F10 cells. The method, then:
Cell-based binding measurements were also performed to measure the apparent affinities of anti-GPNMB antibodies of the present disclosure to cell-surface expressed GPNMB. Serial dilutions of the monoclonal anti-GPNMB antibodies were added to 100,000 Freestyle293-huGPNMB+ or B16F10 cells and allowed to achieve binding equilibrium at 4° C. After addition of fluorescently labeled secondary antibody and brief washing steps, MFI values as a function of titrated antibody concentration was recorded via FACS analysis. Curves were fit using nonlinear regression analysis with Graphpad Prism 6 software.
By EC50 is commonly meant the concentration that produces a half-maximal response. B1 displayed an EC50 of 36.2 nM.

B2: the EC50 is 5.38 nM. This EC50 is about 6.7-fold lower than that of the molecule before.

B3 showed an EC50 of 2.29 nM.

Regarding B4, the EC50 was 2.62 nM.

For the next assay, the target named is T2, full-length untagged human GPNMB …. The assay can be described thus: cell-based or functional assay.
In the case of B5, the “EC50 PDL1” value is 0.91 nM, the “Fold Increase CD40 (max response at 1 µg/ml)” value (shortened to “Fold Increase CD40”) came to 2.1 fold and the “Fold Increase PDL1 (max response at 1 µg/ml)” value (shortened to “Fold Increase PDL1”) was 4.31 fold.

In the case of B6, the “EC50 PDL1” value was 1.37 nM, the “Fold Increase CD40” value turned out to be 2.15 fold and the “Fold Increase PDL1” value was found to be 4.57 fold.

As for B7, the “EC50 PDL1” value stood at 0.97 nM, the “Fold Increase CD40” value worked out at 2.1 fold and the “Fold Increase PDL1” value was 4.22 fold.

Regarding B8, the “EC50 PDL1” value came out at 1 nM, the “Fold Increase CD40” value worked out at 2.12 fold and the “Fold Increase PDL1” value stood at 4.22 fold.

On to B9, for which the “EC50 PDL1” value was 0.68 nM, the “Fold Increase CD40” value came out at 2.12 fold and the “Fold Increase PDL1” value came out at 4.28 fold.

With B10, the “EC50 PDL1” value came out at 1.36 nM, the “Fold Increase CD40” value came to 2.15 fold and the “Fold Increase PDL1” value was found to be 4.4 fold.

The target in the next assay is T3, soluble mouse GPNMB-Fc polypeptide …. The assay can be described thus: FACS, blocking of moGPNMB-Fc binding to SVEC4-10 cells. Here is the method: Purified full-length anti-GPNMB antibodies of the present disclosure were evaluated for their ability to block binding of moGPNMB-Fc to SVEC4-10 cells to determine the ligand blocking potency of each anti-GPNMB monoclonal antibody. Briefly, 2 μg/mL moGPNMB-Fc (mouse IgG2A Fc) diluted in binding buffer was pre-complexed with increasing concentrations of anti-GPNMB antibody of the present disclosure or human IgG1 isotype control antibody in 96-well plates. Subsequently, 100,000 SVEC4-10 cells were added per well and incubated on ice for 30 minutes. Soluble moGPNMB-Fc bound to cell surface was detected with fluorescent anti-mouse IgG2A secondary antibody and measured on FACSCanto. (FIG. 5A and FIG. 5B) IC50 values (for antibodies that block moGPNMB-Fc cell binding) and EC50 values (for antibodies that enhance moGPNMB-Fc cell binding) based on changes in MFI values were calculated (average+standard error) for each anti-GPNMB antibody and listed in Table 6. In Table 6, NA indicates no activity. […] In all cases, certain anti-GPNMB antibodies of the present disclosure blocked soluble GPNMB binding to cells, while other anti-GPNMB antibodies of the present disclosure enhanced soluble GPNMB binding to cells.
(In general: In flow cytometry, cells or beads pass a laser one at a time.)
The IC50 is the concentration that inhibits the measured activity by half. Regarding B1, the IC50 was 5.37 nM.

The molecule B3 yielded an IC50 of 1.17 nM.

The next assay concerns the target T2, full-length untagged human GPNMB …. The assay can be described thus: cell-based or functional assay. This is another data set of the same source.
As for B11, the “IC50 (read off the curve) of the loss of cell surface GPNMB (MFI), internalization assay on human macrophages” value is ~2 nM.

Source of the values: patent publication US20250270343A1 (Alector, published 2025).
